The supplement of paper PMC11246515
± gives the standard deviation of the averaged measurements.

Assay: total protein half-life in vivo (active degradation + dilution); higher = more stable protein
[1] = E. coli NCM3722 delta-clpP delta-lon delta-hslV, growth: N-lim chemostat, doubling time 6 h
[2] = E. coli NCM3722 delta-clpP, growth: N-lim chemostat, doubling time 6 h
[3] = E. coli NCM3722 delta-hslV, growth: N-lim chemostat, doubling time 6 h
[4] = E. coli NCM3722 delta-lon, growth: N-lim chemostat, doubling time 6 h
[5] = E. coli NCM3722 delta-smpB, growth: N-lim chemostat, doubling time 6 h
[6] = wild type E. coli NCM3722, growth: C-lim chemostat, doubling time 6 h
[7] = wild type E. coli NCM3722, growth: C-lim chemostat, doubling time 12 h
[8] = wild type E. coli NCM3722, growth: N-lim chemostat, doubling time 6 h
[9] = wild type E. coli NCM3722, growth: N-lim chemostat, doubling time 12 h
[10] = wild type E. coli NCM3722, growth: P-lim chemostat, doubling time 6 h
[11] = wild type E. coli NCM3722, growth: P-lim chemostat, doubling time 12 h
[12] = wild type E. coli NCM3722, growth: C-lim chemostat, doubling time 3 h

Substance	total protein half-life in vivo [1] [h]	total protein half-life in vivo [2] [h]	total protein half-life in vivo [3] [h]	total protein half-life in vivo [4] [h]	total protein half-life in vivo [5] [h]	total protein half-life in vivo [6] [h]	total protein half-life in vivo [7] [h]	total protein half-life in vivo [8] [h]	total protein half-life in vivo [9] [h]	total protein half-life in vivo [10] [h]	total protein half-life in vivo [11] [h]	total protein half-life in vivo [12] [h]
MEKTTTQELLAQAEKICAQRNVRLTPQRLEVLRLMSLQDGAISAYDLLDLLREAEPQAKPPTVYRALDFLLEQGFVHKVESTNSYVLCHLFDQPTHTSAMFICDRCGAVKEECAEGVEDIMHTLAAKMGFALRHNVIEAHGLCAACVEVEACRHPEQCQHDHSVQVKKKPR [P0AC51]	5.27 ± 0.88	5.4504 ± 0.0027	5.09	5.63 ± 0.19	4.2 ± 0.9	3.79	9 ± 1.9	5.15	6.28	3.86 ± 0.18	8.62 ± 0.42	
MATHERRVVFFDLDGTLHQQDMFGSFLRYLLRRQPLNALLVLPLLPIIAIALLIKGRAARWPMSLLLWGCTFGHSEARLQTLQADFVRWFRDNVTAFPLVQERLTTYLLSSDADIWLITGSPQPLVEAVYFDTPWLPRVNLIASQIQRGYGGWVLTMRCLGHEKVAQLERKIGTPLRLYSGYSDSNQDNPLLYFCQHRWRVTPRGELQQLE [P0AD42]	3.86 ± 0.9	2.84	2.383 ± 0.018	2.07	2.7 ± 0.1	3.96	9.2 ± 0.12	2.62 ± 0.42	4.48 ± 0.64	1.82	3.39	2.27
MGRISSGGMMFKAITTVAALVIATSAMAQDDLTISSLAKGETTKAAFNQMVQGHKLPAWVMKGGTYTPAQTVTLGDETYQVMSACKPHDCGSQRIAVMWSEKSNQMTGLFSTIDEKTSQEKLTWLNVNDALSIDGKTVLFAALTGSLENHPDGFNFK [P0AD59]	5.34 ± 0.85	5.71 ± 1	6.18 ± 0.25	6.285 ± 0.011			9.68 ± 1.2	5.85 ± 0.58	12.6 ± 0.36	5.4 ± 0.3	12.9 ± 1	
MSFATISVIGLGYIGLPTAAAFASRQKQVIGVDINQHAVDTINRGEIHIVEPDLASVVKTAVEGGFLRASTTPVEADAWLIAVPTPFKGDHEPDMTYVESAARSIAPVLKKGALVILESTSPVGSTEKMAEWLAEMRPDLTFPQQVGEQADVNIAYCPERVLPGQVMVELIKNDRVIGGMTPVCSARASELYKIFLEGECVVTNSRTAEMCKLTENSFRDVNIAFANELSLICADQGINVWELIRLANRHPRVNILQPGPGVGGHCIAVDPWFIVAQNPQQARLIRTAREVNDHKPFWVIDQVKAAVADCLAATDKRASELKIACFGLAFKPNIDDLRESPAMEIAELIAQWHSGETLVVEPNIHQLPKKLTGLCTLAQLDEALATADVLVMLVDHSQFKVINGDNVHQQYVVDAKGVWR	5.3 ± 0.14		5.1 ± 0.76	4.6415 ± 0.0014	4.11 ± 0.081	7.21 ± 1.1	9.93 ± 3	5 ± 0.43	8.104 ± 0.048	5.77 ± 0.07	12.5 ± 1.5	2.91 ± 0.71
MSIPFTRWPEEFARRYREKGYWQDLPLTDILTRHAASDSIAVIDGERQLSYRELNQAADNLACSLRRQGIKPGETALVQLGNVAELYITFFALLKLGVAPVLALFSHQRSELNAYASQIEPALLIADRQHALFSGDDFLNTFVTEHSSIRVVQLLNDSGEHNLQDAINHPAEDFTATPSPADEVAYFQLSGGTTGTPKLIPRTHNDYYYSVRRSVEICQFTQQTRYLCAIPAAHNYAMSSPGSLGVFLAGGTVVLAADPSATLCFPLIEKHQVNVTALVPPAVSLWLQALIEGESRAQLASLKLLQVGGARLSATLAARIPAEIGCQLQQVFGMAEGLVNYTRLDDSAEKIIHTQGYPMCPDDEVWVADAEGNPLPQGEVGRLMTRGPYTFRGYYKSPQHNASAFDANGFYCSGDLISIDPEGYITVQGREKDQINRGGEKIAAEEIENLLLRHPAVIYAALVSMEDELMGEKSCAYLVVKEPLRAVQVRRFLREQGIAEFKLPDRVECVDSLPLTAVGKVDKKQLRQWLASRASA	5.38	4.77	5.82			5.32					10.7	2.73 ± 0.086
MSRRVATITLNPAYDLVGFCPEIERGEVNLVKTTGLHAAGKGINVAKVLKDLGIDVTVGGFLGKDNQDGFQQLFSELGIANRFQVVQGRTRINVKLTEKDGEVTDFNFSGFEVTPADWERFVTDSLSWLGQFDMVCVSGSLPSGVSPEAFTDWMTRLRSQCPCIIFDSSREALVAGLKAAPWLVKPNRRELEIWAGRKLPEMKDVIEAAHALREQGIAHVVISLGAEGALWVNASGEWIAKPPSVDVVSTVGAGDSMVGGLIYGLLMRESSEHTLRLATAVAALAVSQSNVGITDRPQLAAMMARVDLQPFN [P0AEW9]	5.41 ± 0.1	6.29 ± 0.82	6.11 ± 0.88	5.57 ± 1.3	5.34 ± 0.068	7.05 ± 0.084	12.2 ± 0.77	5.61 ± 0.2	10.74 ± 0.098	6.22 ± 0.24	13.5 ± 2.4	3.11 ± 0.06
P76347	6.25 ± 0.88	1.86							3.04			
MIERGKFRSLTLINWNGFFARTFDLDELVTTLSGGNGAGKSTTMAAFVTALIPDLTLLHFRNTTEAGATSGSRDKGLHGKLKAGVCYSMLDTINSRHQRVVVGVRLQQVAGRDRKVDIKPFAIQGLPMSVQPTQLVTETLNERQARVLPLNELKDKLEAMEGVQFKQFNSITDYHSLMFDLGIIARRLRSASDRSKFYRLIEASLYGGISSAITRSLRDYLLPENSGVRKAFQDMEAALRENRMTLEAIRVTQSDRDLFKHLISEATNYVAADYMRHANERRVHLDKALEFRRELHTSRQQLAAEQYKHVDMARELAEHNGAEGDLEADYQAASDHLNLVQTALRQQEKIERYEADLDELQIRLEEQNEVVAEAIERQQENEARAEAAELEVDELKSQLADYQQALDVQQTRAIQYNQAIAALNRAKELCHLPDLTADCAAEWLETFQAKELEATEKMLSLEQKMSMAQTAHSQFEQAYQLVVAINGPLARNEAWDVARELLREGVDQRHLAEQVQPLRMRLSELEQRLREQQEAERLLADFCKRQGKNFDIDELEALHQELEARIASLSDSVSNAREERMALRQEQEQLQSRIQSLMQRAPVWLAAQNSLNQLSEQCGEEFTSSQDVTEYLQQLLEREREAIVERDEVGARKNAVDEEIERLSQPGGSEDQRLNALAERFGGVLLSEIYDDVSLEDAPYFSALYGPSRHAIVVPDLSQVTEHLEGLTDCPEDLYLIEGDPQSFDDSVFSVDELEKAVVVKIADRQWRYSRFPEVPLFGRAARESRIESLHAEREVLSERFATLSFDVQKTQRLHQAFSRFIGSHLAVAFESDPEAEIRQLNSRRVELERALSNHENDNQQQRIQFEQAKEGVTALNRILPRLNLLADDSLADRVDEIRERLDEAQEAARFVQQFGNQLAKLEPIVSVLQSDPEQFEQLKEDYAYSQQMQRDARQQAFALTEVVQRRAHFSYSDSAEMLSGNSDLNEKLRERLEQAEAERTRAREALRGHAAQLSQYNQVLASLKSSYDTKKELLNDLQRELQDIGVRADSGAEERARIRRDELHAQLSNNRSRRNQLEKALTFCEAEMDNLTRKLRKLERDYFEMREQVVTAKAGWCAVMRMVKDNGVERRLHRRELAYLSADDLRSMSDKALGALRLAVADNEHLRDVLRMSEDPKRPERKIQFFVAVYQHLRERIRQDIIRTDDPVEAIEQMEIELSRLTEELTSREQKLAISSRSVANIIRKTIQREQNRIRMLNQGLQNVSFGQVNSVRLNVNVRETHAMLLDVLSEQHEQHQDLFNSNRLTFSEALAKLYQRLNPQIDMGQRTPQTIGEELLDYRNYLEMEVEVNRGSDGWLRAESGALSTGEAIGTGMSILVMVVQSWEDESRRLRGKDISPCRLLFLDEAARLDARSIATLFELCERLQMQLIIAAPENISPEKGTTYKLVRKVFQNTEHVHVVGLRGFAPQLPETLPGTDEAPSQAS	6.61 ± 0.52	6.45 ± 0.38	4.36 ± 0.13	4.16 ± 0.34	4.2 ± 0.079	5.16 ± 0.064	8.24 ± 0.095	4.374 ± 0.017	5.78 ± 0.3	4.74 ± 0.084	6.65 ± 0.25	2.91 ± 0.16
MRRLPGILLLTGAALVVIAALLVSGLRIALPHLDAWRPEILNKIESATGMPVEASQLSASWQNFGPTLEAHDIRAELKDGGEFSVKRVTLALDVWQSLLHMRWQFRDLTFWQLRFRTNTPITSGGSDDSLEASHISDLFLRQFDHFDLRDSEVSFLTPSGQRAELAIPQLTWLNDPRRHRAEGLVSLSSLTGQHGVMQVRMDLRDDEGLLSNGRVWLQADDIDLKPWLGKWMQDNIALETAQFSLEGWMTIDKGDVTGGDVWLKQGGASWLGEKQTHTLSVDNLTAHITRENPGWQFSIPDTRITMDGKPWPSGALTLAWIPEQDVGGKDNKRSDELRIRASNLELAGLEGIRPLAAKLSPALGDVWRSTQPSGKINTLALDIPLQAADKTRFQASWSDLAWKQWKLLPGAEHFSGTLSGSVENGLLTASMKQAKMPYETVFRAPLEIADGQATISWLNNNKGFQLDGRNIDVKAKAVHARGGFRYLQPANDEPWLGILAGISTDDGSQAWRYFPENLMGKDLVDYLSGAIQGGEADNATLVYGGNPQLFPYKHNEGQFEVLVPLRNAKFAFQPDWPALTNLDIELDFINDGLWMKTDGVNLGGVRASNLTAVIPDYSKEKLLIDADIKGPGKAVGPYFDETPLKDSLGATLQELQLDGDVNARLHLDIPLNGELVTAKGEVTLRNNSLFIKPLDSTLKNLSGKFSFINSDLQSEPLTASWFNQPLNVDFSTKEGAKAYQVAVNLNGNWQPAKTGVLPEAVNEALSGSVAWDGKVGIDLPYHAGATYNIELNGDLKNVSSHLPSPLAKPAGEPLAVNVKVDGNLNSFELTGQAGADNHFNSRWLLGQKLTLDRAIWAADSKTLPPLPEQSGVELNMPPMNGAEWLALFQKGAAESVGGAASFPQHITLRTPMLSLGNQQWNNLSIVSQPTANGTLVEAQGREINATLAMRNNAPWLANIKYLYYNPSVAKTRGDSTPSSPFPTTERINFRGWPDAQIRCTECWFWGQKFGRIDSDITISGDTLTLTNGLIDTGFSRLTADGEWVNNPGNERTSLKGKLRGQKIDAAAEFFGVTTPIRQSSFNVDYDLHWRKAPWQPDEATLNGIIHTQLGKGEITEINTGHAGQLLRLLSVDALMRKLRFDFRDTFGEGFYFDSIRSTAWIKDGVMHTDDTLVDGLEADIAMKGSVNLVRRDLNMEAVVAPEISATVGVAAAFAVNPIVGAAVFAASKVLGPLWSKVSILRYHISGPLDDPQINEVLRQPRKEKAQ	6.25 ± 0.48	6.38 ± 0.3	6.18 ± 0.12	6.21 ± 0.18	5.844 ± 0.013	6.62 ± 0.46	12.6 ± 0.73	6.11 ± 0.16	12.2 ± 1.2	5.67 ± 0.26	9.67 ± 1.6	3.185 ± 0.015
MEKENITIDPRSSFTPSSSADIPVPPDGLVQRSTRIKRIQTTAMLLLFFAAVINYLDRSSLSVANLTIREELGLSATEIGALLSVFSLAYGIAQLPCGPLLDRKGPRLMLGLGMFFWSLFQAMSGMVHNFTQFVLVRIGMGIGEAPMNPCGVKVINDWFNIKERGRPMGFFNAASTIGVAVSPPILAAMMLVMGWRGMFITIGVLGIFLAIGWYMLYRNREHVELTAVEQAYLNAGSVNARRDPLSFAEWRSLFRNRTMWGMMLGFSGINYTAWLYLAWLPGYLQTAYNLDLKSTGLMAAIPFLFGAAGMLVNGYVTDWLVKGGMAPIKSRKICIIAGMFCSAAFTLIVPQATTSMTAVLLIGMALFCIHFAGTSCWGLIHVAVASRMTASVGSIQNFASFICASFAPIITGFIVDTTHSFRLALIICGCVTAAGALAYIFLVRQPINDPRKD							5.28					
MTELKNDRYLRALLRQPVDVTPVWMMRQAGRYLPEYKATRAQAGDFMSLCKNAELACEVTLQPLRRYPLDAAILFSDILTVPDAMGLGLYFEAGEGPRFTSPVTCKADVDKLPIPDPEDELGYVMNAVRTIRRELKGEVPLIGFSGSPWTLATYMVEGGSSKAFTVIKKMMYADPQALHALLDKLAKSVTLYLNAQIKAGAQAVMIFDTWGGVLTGRDYQQFSLYYMHKIVDGLLRENDGRRVPVTLFTKGGGQWLEAMAETGCDALGLDWTTDIADARRRVGNKVALQGNMDPSMLYAPPARIEEEVATILAGFGHGEGHVFNLGHGIHQDVPPEHAGVFVEAVHRLSEQYHR	4.03 ± 0.26	3.74 ± 0.17	3.83 ± 0.17	4.15 ± 0.56	3.93 ± 0.27	5.94 ± 0.61	8.76 ± 0.76	4.31 ± 0.093	6.62 ± 0.27	5.88 ± 0.075	10.4 ± 0.69	2.94 ± 0.43
